Test results from PMC10786891, “Massively parallel profiling of RNA-targeting CRISPR-Cas13d”.
Positions count from the first letter of the chain named. In names and notes the source's numbering stands.

Target: T1, EsCas13d, nuclease-dead (Eubacterium siraeum, UniProt B0MS50, R295A;H300A;R849A;H854A)
T1 sequence: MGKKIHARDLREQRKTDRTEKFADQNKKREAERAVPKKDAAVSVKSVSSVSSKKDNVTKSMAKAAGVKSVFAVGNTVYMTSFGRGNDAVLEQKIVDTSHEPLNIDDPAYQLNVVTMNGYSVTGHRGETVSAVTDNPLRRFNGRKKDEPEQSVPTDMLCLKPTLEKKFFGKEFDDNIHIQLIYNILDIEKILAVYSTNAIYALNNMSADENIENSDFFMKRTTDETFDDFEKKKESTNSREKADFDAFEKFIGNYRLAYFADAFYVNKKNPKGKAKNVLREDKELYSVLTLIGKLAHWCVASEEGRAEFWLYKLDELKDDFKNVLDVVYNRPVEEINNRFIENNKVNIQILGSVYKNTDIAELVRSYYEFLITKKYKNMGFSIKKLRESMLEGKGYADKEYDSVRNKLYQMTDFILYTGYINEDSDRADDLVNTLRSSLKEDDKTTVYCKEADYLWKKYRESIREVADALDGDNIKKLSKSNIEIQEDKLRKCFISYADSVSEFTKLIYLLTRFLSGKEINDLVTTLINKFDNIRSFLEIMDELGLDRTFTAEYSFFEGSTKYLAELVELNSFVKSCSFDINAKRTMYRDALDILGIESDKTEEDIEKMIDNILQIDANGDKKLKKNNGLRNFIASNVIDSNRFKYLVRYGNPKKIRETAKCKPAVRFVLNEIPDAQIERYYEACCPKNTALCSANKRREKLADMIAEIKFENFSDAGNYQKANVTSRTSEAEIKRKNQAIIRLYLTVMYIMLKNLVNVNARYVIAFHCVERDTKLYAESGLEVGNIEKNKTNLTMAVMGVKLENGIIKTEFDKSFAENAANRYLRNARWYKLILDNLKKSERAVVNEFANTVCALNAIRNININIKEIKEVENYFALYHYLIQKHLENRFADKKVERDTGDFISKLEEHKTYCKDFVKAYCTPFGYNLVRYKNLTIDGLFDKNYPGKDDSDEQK
Test: crRNA (strand 1, pre-loaded); Mg2+; 40 mM Tris-HCl pH 7.5, 150 mM NaCl, 6 mM MgCl2, 1 mM DTT, 0.1% Tween-20, 0.2 mg/ml BSA; 25 C; 10 min per concentration, then washed
Conditions: tags: His6-TwinStrep-SUMO cleaved; N-terminal SNAP kept (SNAP-Surface 488); label: 3' end held by stalled T7 RNA polymerase

B1: target 1 insC 3' of 20,insG 3' of 11 (mixed)
RNA 1: CACCCGUGCAAAAAUGCAGGGGUCUAAAACUGAGCGGAUAACCUCUCUAUGG
RNA 2: GGGAAUGGAUCCACAUCUACGAAUUCGUACCACUAGAGAGGUGUAUCCGCUCACCGAGAUCGGAAGAGCACACGU
  Kd: 6.6 ± 0.5 nM

B2: target 1 C2G,G5A (mixed)
RNA 1: B1 RNA 1
RNA 2: GGGAAUGGAUCCACAUCUACGAAUUCGUACCAUAGAGAGGUUAUCCACUGACCGAGAUCGGAAGAGCACACGU
  Kd: 35 ± 5 nM

B3: target 1 insU 3' of 20,insG 3' of 10 (mixed)
RNA 1: B1 RNA 1
RNA 2: B1 RNA 2 with C33U, G43U, U44G
  Kd: 29 ± 6 nM

B4: target 1 G5C,G15A (mixed)
RNA 1: B1 RNA 1
RNA 2: B2 RNA 2 with G37A, A47C, G50C
  Kd: 19.9 ± 1.8 nM

B5: target 1 A9U,U10G (mixed)
RNA 1: B1 RNA 1
RNA 2: B2 RNA 2 with U42G, A43U, A47G, G50C
  Kd: 21.7 ± 2.1 nM

B6: target 1 complement block 4-11 (mixed)
RNA 1: B1 RNA 1
RNA 2: B2 RNA 2 with U41A, U42A, A43U, U44A, C45G, C46G, A47C, C48G, G50C
  Kd: 12.4 ± 0.6 nM

B7: target 1 insC 3' of 13,insC 3' of 10 (mixed)
RNA 1: B1 RNA 1
RNA 2: GGGAAUGGAUCCACAUCUACGAAUUCGUACCAUAGAGAGCGUUCAUCCGCUCACCGAGAUCGGAAGAGCACACGU
  Kd: 12.9 ± 1.3 nM

B8: target 1 A1C,A9G (mixed)
RNA 1: B1 RNA 1
RNA 2: B2 RNA 2 with A43G, A47G, G50C, A51C
  Kd: 21.2 ± 3.4 nM

B9: target 1 U3A,G13C (mixed)
RNA 1: B1 RNA 1
RNA 2: B2 RNA 2 with G39C, A47G, U49A, G50C
  Kd: 32.2 ± 3.2 nM

B10: target 1 insC 3' of 10,insU 3' of 5 (mixed)
RNA 1: B1 RNA 1
RNA 2: B7 RNA 2 with C40G, G41U, U43C, C44A, A45U, U46C, C48G, G49U
  Kd: 14 ± 2.4 nM

B11: target 1 insA 3' of 15,insA 3' of 8 (mixed)
RNA 1: B1 RNA 1
RNA 2: B7 RNA 2 with G39A, C40G, C44A, A45U, U46A
  Kd: 7.4 ± 0.4 nM

B12: target 1 A1U,A9G (mixed)
RNA 1: B1 RNA 1
RNA 2: B2 RNA 2 with A43G, A47G, G50C, A51U
  Kd: 13.1 ± 1.3 nM

B13: target 1 del2,del14 (mixed)
RNA 1: B1 RNA 1
RNA 2: GGGAAUGGAUCCACAUCUACGAAUUCGUACCAUAGAGGGUUAUCCGCUACCGAGAUCGGAAGAGCACACGU
  Kd: 64 ± 11 nM

B14: target 1 G13A,C21A (mixed)
RNA 1: B1 RNA 1
RNA 2: B2 RNA 2 with C31A, G39A, A47G, G50C
  Kd: 35 ± 4 nM

B15: target 1 A1G,C4U (mixed)
RNA 1: B1 RNA 1
RNA 2: B2 RNA 2 with A47G, C48U, G50C, A51G
  Kd: 31 ± 5 nM

B16: target 1 insC 3' of 22,insA 3' of 13 (mixed)
RNA 1: B1 RNA 1
RNA 2: B1 RNA 2 with A32C, C33A, G41A, U42G, G43U
  Kd: 13.4 ± 2 nM

B17: target 1 C7U,U19G (mixed)
RNA 1: B1 RNA 1
RNA 2: B2 RNA 2 with U33G, C45U, A47G, G50C
  Kd: 57 ± 7 nM

B18: target 1 A1C,C4U (mixed)
RNA 1: B1 RNA 1
RNA 2: B2 RNA 2 with A47G, C48U, G50C, A51C
  Kd: 9.8 ± 1.2 nM

B19: target 1 complement block 2-8 (mixed)
RNA 1: B1 RNA 1
RNA 2: B2 RNA 2 with U44A, C45G, C46G, A47C, C48G, U49A
  Kd: 10.5 ± 0.5 nM

B20: target 1 insC 3' of 20,insC 3' of 5 (mixed)
RNA 1: B1 RNA 1
RNA 2: B1 RNA 2 with G43U, U44A, A45U, U46C, C48G, G49C
  Kd: 5.23 ± 0.33 nM

B21: target 1 insC 3' of 18,insU 3' of 1 (mixed)
RNA 1: B1 RNA 1
RNA 2: GGGAAUGGAUCCACAUCUACGAAUUCGUACCAUACGAGAGGUUAUCCGCUCAUCCGAGAUCGGAAGAGCACACGU
  Kd: 30.7 ± 2.6 nM

B22: target 1 insC 3' of 14,insC 3' of 14 (mixed)
RNA 1: B1 RNA 1
RNA 2: B7 RNA 2 with G39C, U42G, C44U
  Kd: 42 ± 4 nM

B23: target 1 U8C,C21A (mixed)
RNA 1: B1 RNA 1
RNA 2: B2 RNA 2 with C31A, U44C, A47G, G50C
  Kd: 44 ± 5 nM

B24: target 1 insU 3' of 6,insG 3' of 1 (mixed)
RNA 1: B1 RNA 1
RNA 2: GGGAAUGGAUCCACAUCUACGAAUUCGUACCAUAGAGAGGUUAUCCUGCUCAGCCGAGAUCGGAAGAGCACACGU
  Kd: 12.5 ± 0.8 nM

B25: target 1 insC 3' of 16,insG 3' of 8 (mixed)
RNA 1: B1 RNA 1
RNA 2: B7 RNA 2 with G37C, A38G, G39A, C40G, C44A, A45U, U46G
  Kd: 56 ± 13 nM

B26: target 1 insC 3' of 9,insC 3' of 9 (mixed)
RNA 1: B1 RNA 1
RNA 2: B7 RNA 2 with C40G, G41U, U43A, A45C
  Kd: 10.7 ± 0.7 nM

B27: target 1 insA 3' of 22,insA 3' of 10 (mixed)
RNA 1: B1 RNA 1
RNA 2: B1 RNA 2 with C31A, A32C, C33A, G43U, U44A
  Kd: 14.6 ± 1 nM

B28: target 1 U3G,A18G (mixed)
RNA 1: B1 RNA 1
RNA 2: B2 RNA 2 with A34G, A47G, U49G, G50C
  Kd: 87 ± 23 nM

B29: target 1 insC 3' of 18,insU 3' of 9 (mixed)
RNA 1: B1 RNA 1
RNA 2: B1 RNA 2 with C33U, U34A, A35C, G43U, U44A, A45U
  Kd: 51 ± 11 nM

B30: target 1 C7A,U10A (mixed)
RNA 1: B1 RNA 1
RNA 2: B2 RNA 2 with U42A, C45A, A47G, G50C
  Kd: 8.48 ± 0.31 nM
